Measurements reported in doi:10.1101/2023.01.27.525918 (bioRxiv, 2023).

What was measured:
[1] = target: T1, Human RPA complex (RPA70, RPA32, RPA14), recombinant full length (human, UniProt P27694;P15927;P35244); test: pull-down
[2] = target: T1, Human RPA complex (RPA70, RPA32, …); test: SEC
[3] = target: RPA70 as the subunit of the purified recombinant RPA complex (human, UniProt P27694 1-616); test: cross-linking
[4] = target: ZUP1;RPA complex WT (RPA70/RPA32/RPA14) (Homo sapiens;Homo sapiens, UniProt Q96AP4;P27694;P15927;P35244 1-578;1-616;1-270;1-121, |); test: EMSA
Chain of ZUP1;RPA complex WT (RPA70/RPA32/RPA14) (P27694 whole entry, chain 2 of 3): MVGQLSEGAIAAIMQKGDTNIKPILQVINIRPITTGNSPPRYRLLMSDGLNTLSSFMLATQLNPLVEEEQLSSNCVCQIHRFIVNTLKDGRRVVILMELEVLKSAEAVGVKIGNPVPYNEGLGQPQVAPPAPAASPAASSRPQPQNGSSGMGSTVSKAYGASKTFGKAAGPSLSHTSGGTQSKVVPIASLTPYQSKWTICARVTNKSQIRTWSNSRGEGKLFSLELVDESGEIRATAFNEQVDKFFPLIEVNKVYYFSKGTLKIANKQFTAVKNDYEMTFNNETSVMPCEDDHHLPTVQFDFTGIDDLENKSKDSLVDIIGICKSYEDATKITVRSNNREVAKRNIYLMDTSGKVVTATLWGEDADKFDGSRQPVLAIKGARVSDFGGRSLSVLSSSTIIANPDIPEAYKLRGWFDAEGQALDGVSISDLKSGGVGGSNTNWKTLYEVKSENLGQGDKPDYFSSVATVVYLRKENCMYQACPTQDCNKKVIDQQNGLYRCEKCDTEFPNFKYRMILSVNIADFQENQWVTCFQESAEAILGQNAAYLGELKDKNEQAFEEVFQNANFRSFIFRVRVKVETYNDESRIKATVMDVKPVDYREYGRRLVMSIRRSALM
Chain of ZUP1;RPA complex WT (RPA70/RPA32/RPA14) (P15927 whole entry, chain 3 of 3): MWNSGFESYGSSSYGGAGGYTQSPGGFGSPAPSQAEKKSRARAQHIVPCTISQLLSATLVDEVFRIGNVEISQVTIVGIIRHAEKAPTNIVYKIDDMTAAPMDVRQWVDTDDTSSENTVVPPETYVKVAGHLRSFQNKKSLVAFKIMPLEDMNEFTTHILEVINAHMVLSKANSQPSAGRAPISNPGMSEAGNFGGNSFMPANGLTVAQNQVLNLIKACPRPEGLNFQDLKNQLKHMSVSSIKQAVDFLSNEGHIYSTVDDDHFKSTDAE
Chain of ZUP1;RPA complex WT (RPA70/RPA32/RPA14) (P35244 whole entry, chain 4 of 3): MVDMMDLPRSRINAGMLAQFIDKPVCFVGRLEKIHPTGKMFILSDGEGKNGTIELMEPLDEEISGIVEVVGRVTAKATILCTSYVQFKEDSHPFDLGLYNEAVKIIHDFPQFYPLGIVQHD

T1 sequence (P27694 whole entry, chain 1 of 3): as the sequence (P27694 whole entry, chain 2 of 3) above
T1 sequence (P15927 whole entry, chain 2 of 3): as the sequence (P15927 whole entry, chain 3 of 3) above
T1 sequence (P35244 whole entry, chain 3 of 3): as the sequence (P35244 whole entry, chain 4 of 3) above
Chain of UniProt P27694 (P27694 whole entry, one chain of several): as the sequence (P27694 whole entry, chain 2 of 3) above

B1: GST-ZUP1 α-2/3-C78 (aa 272-578) (domain or fragment)
chain: SGGYKQQQLRNMEIEVNRGRMPPSEFHRRKADMMESLALGFDDGKTKTSGIIEALHRYYQNAATDVRRVWLSSVVDHFHSSLGDKGWGCGYRNFQMLLSSLLQNDAYNDCLKGMLIPCIPKIQSMIEDAWKEGFDPQGASQLNNRLQGTKAWIGACEVYILLTSLRVKCHIVDFHKSTGPLGTHPRLFEWILNYYSSEGEGSPKVVCTSKPPIYLQHQGHSRTVIGIEEKKNRTLCLLILDPGCPSREMQKLLKQDIEASSLKQLRKSMGNLKHKQYQILAVEGALSLEEKLARRQASQVFTAEKIP
[1]
  binding result: binds

B2: ZUP1 C360A (catalytically inactive mutant of full length ZUP1) (enzyme)
chain: MLSCNICGETVTSEPDMKAHLIVHMESEIICPFCKLSGVNYDEMCFHIETAHFEQNTLERNFERINTVQYGTSDNKKDNTLQCGMEVNSSILSGCASNHPKNSAQNLTKDSTLKHEGFYSENLTESRKFLKSREKQSSLTEIKGSVYETTYSPPECPFCGKIEEHSEDMETHVKTKHANLLDIPLEDCDQPLYDCPMCGLICTNYHILQEHVDLHLEENSFQQGMDRVQCSGDLQLAHQLQQEEDRKRRSEESRQEIEEFQKLQRQYGLDNSGGYKQQQLRNMEIEVNRGRMPPSEFHRRKADMMESLALGFDDGKTKTSGIIEALHRYYQNAATDVRRVWLSSVVDHFHSSLGDKGWGAGYRNFQMLLSSLLQNDAYNDCLKGMLIPCIPKIQSMIEDAWKEGFDPQGASQLNNRLQGTKAWIGACEVYILLTSLRVKCHIVDFHKSTGPLGTHPRLFEWILNYYSSEGEGSPKVVCTSKPPIYLQHQGHSRTVIGIEEKKNRTLCLLILDPGCPSREMQKLLKQDIEASSLKQLRKSMGNLKHKQYQILAVEGALSLEEKLARRQASQVFTAEKIP
[2]
  binding result: binds
[3]
  binding result: binds

B3: Gap-26 (mixed)
DNA 1: CTATGGCGAGGCGATTATCAACCCATTTAGTCGTAATAGTGAAGAGTCACGACAACATCG
DNA 2: TAATCGCCTCGCCATAG
DNA 3: CGATGTTGTCGTGACTC
[4]
  binding result: binds
